Measurements as given in the Human Domainome abundance scans (Beltran et al. 2025).
± gives the uncertainty stated by the source.

B1: SWI/SNF-related matrix-associated actin-dependent regulator of chromatin subfamily B member 1, residues 181 to 248; numbered along this chain, Q12824 (parent)
chain: SQPEVLVPIRLDMEIDGQKLRDAFTWNMNEKLMTPEMFSEILCDDLDLNPLTFVPAIASAIRQQIESY

Variants of: B1
Assay: abundance fitness (aPCA) (normalised: wild type 0, dead -1); higher = more abundant; growth selection in yeast, the domain comes from the species named
Conditions: Homo sapiens
With Q18K the abundance fitness was -0.234 ± 0.26. With Y68V the abundance fitness was -0.373 ± 0.11. With F38K the abundance fitness was 0.132 ± 0.38. Work on L46S yielded an abundance fitness of -0.694 ± 0.1. E14P showed an abundance fitness of -0.937 ± 0.22. With L20R the abundance fitness was -0.501 ± 0.1. E4P showed an abundance fitness of -0.024 ± 0.062. T25A showed an abundance fitness of -0.172 ± 0.051. Work on L48V yielded an abundance fitness of -0.554 ± 0.071. Work on L20M yielded an abundance fitness of -0.655 ± 0.19. In the case of Q64D, the abundance fitness is reported as -1.22 ± 0.4. N49G showed an abundance fitness of -0.735 ± 0.11. D44H showed an abundance fitness of 0.258 ± 0.17. With S67V the abundance fitness was -0.098 ± 0.058. Variant Y68M has an abundance fitness of -0.641 ± 0.29. P50C showed an abundance fitness of -0.751 ± 0.49. T34G gave an abundance fitness of -0.686 ± 0.25. For S1Y, the abundance fitness was 0.088 ± 0.11. With C43Y the abundance fitness was -0.662 ± 0.1. V5F showed an abundance fitness of -0.079 ± 0.17. Work on F24H yielded an abundance fitness of -0.991 ± 0.29. In the case of I41G, the abundance fitness is reported as 0.097 ± 0.041. Variant I41W has an abundance fitness of -0.04 ± 0.045. In the case of D16S, the abundance fitness is reported as -0.39 ± 0.048. For C43R, the abundance fitness was -0.831 ± 0.1. Variant L46H has an abundance fitness of 0.318 ± 0.14. I41M gave an abundance fitness of 0.131 ± 0.048. In the case of Y68W, the abundance fitness is reported as 0.165 ± 0.073. Q2F showed an abundance fitness of 0.392 ± 0.24. Work on A23W yielded an abundance fitness of -0.144 ± 0.039. In the case of L11A, the abundance fitness is reported as -0.792 ± 0.38. For S1M, the abundance fitness was 0.127 ± 0.071. For A60C, the abundance fitness was -0.068 ± 0.082. L6F gave an abundance fitness of -0.236 ± 0.12. In the case of P3S, the abundance fitness is reported as 0.129 ± 0.052. For I41V, the abundance fitness was 0.01 ± 0.04. N29V gave an abundance fitness of -0.727 ± 0.21. Variant I9E has an abundance fitness of -0.904 ± 0.44. For K31C, the abundance fitness was -0.391 ± 0.095. K31A gave an abundance fitness of 0.031 ± 0.077. Variant E30G has an abundance fitness of -0.617 ± 0.32. For N29K, the abundance fitness was -0.286 ± 0.096. Work on D47G yielded an abundance fitness of 0.053 ± 0.038. For V7C, the abundance fitness was -0.293 ± 0.079. Variant A60Y has an abundance fitness of -0.637 ± 0.11. With D45G the abundance fitness was -0.185 ± 0.26. In the case of S67M, the abundance fitness is reported as -0.103 ± 0.13. With N27M the abundance fitness was -0.988 ± 0.36. M33L gave an abundance fitness of 0.01 ± 0.039. M33F showed an abundance fitness of -0.542 ± 0.26. For S1C, the abundance fitness was -0.095 ± 0.067. In the case of I61R, the abundance fitness is reported as -0.878 ± 0.12. I65C showed an abundance fitness of 0.036 ± 0.24. With L32Q the abundance fitness was 0.099 ± 0.047. Work on S1V yielded an abundance fitness of -0.048 ± 0.094. With T52Q the abundance fitness was -0.215 ± 0.1. T25D showed an abundance fitness of 0.021 ± 0.044. With M33Y the abundance fitness was -0.421 ± 0.17. I57L showed an abundance fitness of -0.76 ± 0.068. For I15M, the abundance fitness was -0.667 ± 0.24. Work on N49L yielded an abundance fitness of -0.924 ± 0.079. With Q63W the abundance fitness was -0.467 ± 0.078. Variant R10Y has an abundance fitness of 0.138 ± 0.29. In the case of E14H, the abundance fitness is reported as -0.202 ± 0.18. For A23M, the abundance fitness was 0.048 ± 0.067. E4Q gave an abundance fitness of -0.182 ± 0.075. D44I gave an abundance fitness of -0.259 ± 0.17. For T25S, the abundance fitness was -0.173 ± 0.061. Variant L32W has an abundance fitness of -0.113 ± 0.061. For D45Q, the abundance fitness was -0.284 ± 0.48. With L11P the abundance fitness was -0.578 ± 0.42. P50I gave an abundance fitness of -1 ± 0.35. For I57N, the abundance fitness was -0.542 ± 0.13. Variant A56F has an abundance fitness of -0.623 ± 0.16. In the case of L48D, the abundance fitness is reported as -0.785 ± 0.2. With E66L the abundance fitness was -0.229 ± 0.05. Work on A60T yielded an abundance fitness of -0.081 ± 0.043. With L51A the abundance fitness was 0.041 ± 0.088. For S1G, the abundance fitness was -0.061 ± 0.059. Work on L32A yielded an abundance fitness of 0.056 ± 0.036. T52F showed an abundance fitness of -0.412 ± 0.26. In the case of E4V, the abundance fitness is reported as 0.047 ± 0.12. With Q63N the abundance fitness was -0.038 ± 0.075. S67T showed an abundance fitness of -0.101 ± 0.071. For K19W, the abundance fitness was -0.7 ± 0.5. For S1K, the abundance fitness was 0.167 ± 0.077. Work on D16G yielded an abundance fitness of -0.027 ± 0.04. For I65V, the abundance fitness was -0.232 ± 0.11. L46P showed an abundance fitness of -1.08 ± 0.23. Variant Q63Y has an abundance fitness of 0.105 ± 0.2. For E66C, the abundance fitness was -0.385 ± 0.098. R62I showed an abundance fitness of -0.824 ± 0.21. In the case of I57P, the abundance fitness is reported as -1.04 ± 0.28. D22G gave an abundance fitness of -0.418 ± 0.28. Variant E40F has an abundance fitness of -0.463 ± 0.17. Work on C43E yielded an abundance fitness of -1.02 ± 0.35. For D16Y, the abundance fitness was -0.546 ± 0.086. For R62H, the abundance fitness was -0.239 ± 0.14. In the case of V5M, the abundance fitness is reported as -0.107 ± 0.28. For I41F, the abundance fitness was -0.103 ± 0.092. For P8M, the abundance fitness was -0.355 ± 0.068. In the case of D44K, the abundance fitness is reported as 0.177 ± 0.17. M13W showed an abundance fitness of -0.606 ± 0.41. Variant V7E has an abundance fitness of -0.868 ± 0.18. For S67N, the abundance fitness was 0.082 ± 0.063. L51S showed an abundance fitness of 0.044 ± 0.065. Work on I57M yielded an abundance fitness of -0.417 ± 0.068. For D44M, the abundance fitness was -0.473 ± 0.26. Work on I57R yielded an abundance fitness of -0.912 ± 0.11. In the case of L6W, the abundance fitness is reported as -0.152 ± 0.39. I61C showed an abundance fitness of -0.956 ± 0.27. I65E showed an abundance fitness of -0.994 ± 0.41. Variant S67W has an abundance fitness of -0.234 ± 0.083. Work on I15A yielded an abundance fitness of -0.917 ± 0.23. Work on L51T yielded an abundance fitness of -0.174 ± 0.12. P50T showed an abundance fitness of -0.364 ± 0.093. E40N showed an abundance fitness of -0.269 ± 0.11. Work on I65Q yielded an abundance fitness of -0.852 ± 0.22. L32Y showed an abundance fitness of 0.061 ± 0.058. Variant R10S has an abundance fitness of -0.444 ± 0.18. Variant T34I has an abundance fitness of -0.848 ± 0.39. In the case of D22V, the abundance fitness is reported as -0.037 ± 0.16. C43T showed an abundance fitness of -0.971 ± 0.18. For V5Y, the abundance fitness was -0.096 ± 0.14. For V7A, the abundance fitness was -0.65 ± 0.066. Work on W26E yielded an abundance fitness of -0.628 ± 0.33. With I61A the abundance fitness was -0.763 ± 0.1. In the case of I41R, the abundance fitness is reported as 0.218 ± 0.03. In the case of I61G, the abundance fitness is reported as -0.854 ± 0.15. Variant Y68A has an abundance fitness of -0.127 ± 0.051. N29Q showed an abundance fitness of -0.476 ± 0.45. For V7R, the abundance fitness was -0.998 ± 0.12. For N29L, the abundance fitness was -0.939 ± 0.25. Variant C43N has an abundance fitness of -1.03 ± 0.19. D22M gave an abundance fitness of -0.277 ± 0.4. Work on I61K yielded an abundance fitness of -0.75 ± 0.17. For A60K, the abundance fitness was -0.214 ± 0.068. In the case of L46Q, the abundance fitness is reported as -0.162 ± 0.064. N27D gave an abundance fitness of 0.165 ± 0.23. For E4M, the abundance fitness was -0.201 ± 0.074. For I15E, the abundance fitness was -0.765 ± 0.18. D44N gave an abundance fitness of -0.403 ± 0.47. In the case of T34Q, the abundance fitness is reported as -0.881 ± 0.39. With I41Q the abundance fitness was 0.211 ± 0.06. For S1I, the abundance fitness was 0.238 ± 0.3. With P8Q the abundance fitness was -0.072 ± 0.043. Y68S gave an abundance fitness of -0.427 ± 0.069. For E14R, the abundance fitness was -0.733 ± 0.14. In the case of T25W, the abundance fitness is reported as -0.228 ± 0.05. P3Y showed an abundance fitness of 0.002 ± 0.092. R21E gave an abundance fitness of -0.026 ± 0.085. With A56S the abundance fitness was -0.278 ± 0.03. Work on A56N yielded an abundance fitness of -0.654 ± 0.19. Work on T25K yielded an abundance fitness of -0.125 ± 0.066. Variant T25Y has an abundance fitness of -0.326 ± 0.18. In the case of R10T, the abundance fitness is reported as 0.135 ± 0.055. In the case of L46C, the abundance fitness is reported as -0.231 ± 0.2. A60S gave an abundance fitness of 0.076 ± 0.03. For M13D, the abundance fitness was -0.944 ± 0.44. Variant M33K has an abundance fitness of -0.325 ± 0.091. In the case of S67R, the abundance fitness is reported as 0.039 ± 0.035. For P8F, the abundance fitness was -0.506 ± 0.089. Variant R62F has an abundance fitness of -0.69 ± 0.37. For M33I, the abundance fitness was -0.104 ± 0.12. Variant L51D has an abundance fitness of 0.125 ± 0.18. I9H showed an abundance fitness of -0.89 ± 0.25. With T25F the abundance fitness was 0.311 ± 0.21.
